Measurements as given in article PMC3207847, “Characterization of a Novel Type of HIV-1 Particle Assembly Inhibitor Using a Quantitative Luciferase-Vpr Packaging-Based Assay” (PLoS ONE, 2011).

Target: HIV-1 Gag precursor Pr55Gag, full-length wild type (HIV-1) (UniProt P03348)
Assay: co-sedimentation

Row | Substance | copies of Gag per LucVpr molecule in VLP (copies of Gag per LucVpr molecule) | copies of Gag per Vpr molecule in VLP (copies of Gag per Vpr molecule)
1 | luciferase-Vpr fusion protein (LucVpr) (from UniProt P05928 1-96) (natural protein) | 4.92 | –
2 | oligohistidine-tagged HIV-1 Vpr protein (from UniProt P05928 1-96) (natural protein) | – | 5.6
